From US20250115663A1 (CELLDEX THERAPEUTICS, published 2025)

What was measured:
[1] = molecular target: T1, soluble human CD40-MsIgG2a (human, UniProt P25942); assay: BLI (Octet QKe), antibody captured on anti-human Fc (AHC) biosensors, analyte soluble human CD40-MsIgG2a 3.13 to 0.098 nM, 25 C, 1:1 fit
T1 construct: soluble, fused to mouse IgG2a; also called recombinant human CD40-msG2a chimeric protein; CD40-MsIgG2a (Celldex, 60 kD by SDS-PAGE)
Method: (§1) Purified antibodies from Example 1 were captured on Anti-Human Fc Capture (AHC) biosensors (Fortebio Product No. 18-5060). Each antibody was prepared in dilution buffer (10mMPO4+150 mM NaCl+1 mg/mL BSA+0.5% Tween 20, pH 7.2) to 0.5 μg/mL and loaded on freshly hydrated AHC biosensors for 35-50 sec at 25° C. and 1000 rpm plate shake speed to achieve a target response of 0.2 nm. Low levels of ligand were captured to limit any effects of mass transport of analyte on kinetic parameters. For one assay, eight biosensors were loaded with the same antibody.
(§2) Binding was determined by exposing six of the antibody loaded biosensors to analyte: soluble human CD40-MsIgG2a (Celldex, 60 kD by SDS-PAGE). Affinity measurements were determined using 2-fold serial dilutions of analyte ranging from 3.13 to 0.098 nM in dilution buffer at 25° C. and 1000 rpm plate shake speed. Association of the antibody loaded biosensors in analyte wells was carried out for 1200 seconds, the biosensors were then moved to dilution buffer wells for 2.5 hrs (9000 sec) for dissociation measurements.
(§3) Fortebio's Data Analysis Software version 8.2.0.7 (Pall ForteBio, Menlo Park, CA) was used in each case to derive kinetic parameters from the concentration series of analyte in dilution buffer binding to captured antibody. The association and dissociation curves were fitted to a 1:1 binding model using the data analysis software according to the manufacturer's guidelines.

[2] = molecular target: T1, soluble human CD40-MsIgG2a; assay: BLI (Octet QKe), antibody captured on anti-human Fc (AHC) biosensors, analyte soluble human CD40-MsIgG2a 3.13 to 0.098 nM, 25 C, 1:1 fit; column head kdis(1/s)
Method: as §1, §2, §3

[3] = molecular target: T2, recombinant human CD40-Fc (human, UniProt P25942 21-193); assay: ELISA on coated recombinant human CD40-Fc, detection anti-human IgG F(ab')2-HRP, OD 450-650
T2 construct: also called soluble recombinant human CD40/Fc chimera from R&D Systems; not shown: The antibody Fc domain of the R&D Systems chimera and any linker to it
Method: Microtiter plates were coated with recombinant human CD40-Fc in PBS, and then blocked with 5% bovine serum albumin in PBS. […] The plates were washed with PBS/Tween and then incubated with a goat-anti-human IgG F(ab′)2-specific polyclonal reagent conjugated to horseradish peroxidase at 37° C. After washing, the plates were developed with HRP substrate, and analyzed at OD 450-650 using a microtiter plate reader.

[4] = molecular target: T2, recombinant human CD40-Fc; assay: ELISA on coated recombinant human CD40-Fc, detection anti-human IgG F(ab')2-HRP, OD 450-650 (the y axis is labelled 'Median Fluorescence')
Method: Microtiter plates were coated with recombinant human CD40-Fc in PBS, and then blocked with 5% bovine serum albumin in PBS. Protein A purified human mAbs from Example 1 and an isotype control were added at various concentrations and incubated at 37° C. The plates were washed with PBS/Tween and then incubated with a goat-anti-human IgG F(ab′)2-specific polyclonal reagent conjugated to horseradish peroxidase at 37° C. After washing, the plates were developed with HRP substrate, and analyzed at OD 450-650 using a microtiter plate reader.

T1 sequence (P25942 21-193 limits assumed): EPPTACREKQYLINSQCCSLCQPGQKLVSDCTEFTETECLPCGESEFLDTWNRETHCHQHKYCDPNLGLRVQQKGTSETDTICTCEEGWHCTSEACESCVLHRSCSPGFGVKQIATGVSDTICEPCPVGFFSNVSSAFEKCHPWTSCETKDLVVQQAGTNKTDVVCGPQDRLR
T2 sequence (P25942 21-193 limits assumed, form in doubt): as the sequence (P25942 21-193 limits assumed) above

Kd [1] | kon [1] | koff [2] | EC50 (read off the curve) [3] | EC50 (read off the curve) [4] | Binder
0.0105 nM | 832000 M⁻¹ s⁻¹ | 8.76e-06 s⁻¹ | – | – | anti-CD40 human monoclonal antibody 1B4 (antibody, human IgG2, V domains shown, Human IgG2) VH: EVQLLESGGGLVQPGGSLRLSCAASGFTFSSYAMTWVRQVPGKGLEWVSGITGSGANTFYTDSVKGRFTISRDNSNNSLYLQMNSLRADDTAVYYCAKRNGGSYYYYYGMDVWGQGTTVTVSS VL: not shown
0.0028 nM | 905000 M⁻¹ s⁻¹ | 2.49e-06 s⁻¹ | – | – | anti-CD40 human monoclonal antibody 6H6 (antibody, human IgG2, V domains shown, Human IgG2) VH: QVQLVESGGGVVQPGRSLRFSCAASGFTLSSYGMHWVRQAPGKGLEWVAVIWDDGSNKYYADSVKGRFTISRDNSKNTLYLQMNSLRAEDTAVYYCARAGGSGRYYNYFDYWGQGTLVTVSS VL: EIVMTQSPATLSVSPGERATLSCRASQSVRSNLAWYQQKPGQAPRLLIYGASTRATGIPARFSGSGSGTDFTLTISSLQSEDFAVYYCQQHNNWLTFGGGTKVEIK
– | – | – | ~0.3 nM | – | F(ab')2 fragment of antibody 3G5 (other, F(ab')2 version of the IgG2 antibody, lacking the Fc domain; also called 3G5 F(ab')2) VH: QVQLVESGGGVVQPGKSLRLSCAASGFTFSSNGIHWVRQAPGKGLEWVAVIWSDGSNKFYADSVKGRFTISRDNSKNTLYLQMNSLRAEDTAVYYCARASGSGSYYNFFDYWGQGTLVTVSS VL: EIVMTQSPATLSVSPGERATLSCRASQSVRSNLAWYQQKPGQAPRLLIYGASTRATGIPARFSGSGSGTEFTLTINSLQSEDFAVYYCQQHNKWITFGQGTRLEIK
– | – | – | – | ~0.09 µg/mL | anti-CD40 human monoclonal antibody 1B5-NK (antibody, human IgG2, V domains shown, Human IgG2) VH: QVQLVESGGGVVQPGRSLRLSCAASGFTFSSFGMHWVRQAPGKGLEWVTLIWFDGSSKYYADSVKGRFTISRDNSKNTLYLQMNSLRAEDTAVYYCVRGFAAVAGWYFDFWGRGTLVTVSS VL: DIQMTQSPSSLSASVGDRVTITCRASQGVRKYLAWYQQKPGKVPKLLIYAASTLQSGVPSRFSGSGSGTDFTLTISSLQPEDVATYYCQKYFSAPYTFGQGTKLEIK
– | – | – | ~0.4 nM | – | F(ab')2 fragment of antibody 3C3 (other, F(ab')2 version of the IgG2 antibody, lacking the Fc domain; also called 3C3 F(ab')2) VH: QVQLVESGGGVVQPGRSLRLSCAGSGFIFSRYGMYWVRQAPGKGLEWVAVIWYDGSYKYYADSVKGRFTISRDNSKNTLYLQMNSLRAEDTAVYYCARESPWYYFDYWGQGTLVTVSS VL: DIQMTQSPSSLSASVGDRVTITCRASQGISNYLAWYQQKPGKVPKLLIYAASTLQSGVPSRFSGSGSGTDFTLTISSLQPEDVATYYCQKYKSAPFTFGPGTKVDIK
0.0079 nM | 782000 M⁻¹ s⁻¹ | 6.14e-06 s⁻¹ | – | – | anti-CD40 human monoclonal antibody 3B6 (antibody, human IgG2, V domains shown, Human IgG2) VH: EVQLLESGGGLVQPGGSLRLSCAASGFTFSSYAMSWVRQAPGKGLEWVSGITGTGGSTYYADSVKGRFTISRDNSKNTLYVQMNSLRAEDTAVYYCAKRAGGSFYYYYGMDVWGQGTTVTVSS VL: DIVMTQSPLSLPVTPGEPASISCRSSQSLLHSTGYNYLDWYLQKPGQSPQLLIYLGSNRASGVPDRFNGSGSGTDFTLKISRVEAEDFGVYYCMQALQTPWTFGHGTKVEIK
